pKd: −log10 of the molar value.
Tests used:
[1] = target: Beta vulgaris ssp. vulgaris phytoglobin type 1.2 (BvPgb1.2) (Beta vulgaris spp. vulgaris); assay: SEC; analytical size exclusion chromatography of the purified protein samples; conditions not given (ref. 23)
[2] = target: Beta vulgaris ssp. vulgaris phytoglobin type 1.2 (BvPgb1.2) (Beta vulgaris spp. vulgaris); assay: NMR 15N relaxation (rotational correlation time from R2/R1, ROTDIF, compared with HYDRONMR values for monomeric and dimeric structures); CN-bound BvPgb1.2, 1 mM protein in 50 mM MOPS pH 7.4, 8% D2O, 298 K, 14.1 T; monomer to dimer
Hb1 (Oryza sativa) = Hb1 (Oryza sativa) (UniProt O04986); details: cited from earlier work

| stoichiometry N [1] | stoichiometry N [2] | Substance | pKd (Hb1 (Oryza sativa)) |
| --- | --- | --- | --- |
| 2 | 2 | Beta vulgaris ssp. vulgaris phytoglobin type 1.2 (BvPgb1.2) (natural protein) |  |
|  |  | Hb1 (from UniProt O04986) | 4.07 |
